The values that follow come from paper doi:10.1101/841569 (bioRxiv, 2019).

The stoichiometry N is the number of molecules, sites or subunits per partner or assembly.

This series deals with the molecule itself. Description: crystal structure.

B1: Mycobacterium tuberculosis MenD (2-succinyl-5-enolpyruvyl-6-hydroxy-3-cyclohexadiene-1-carboxylate synthase, SEPHCHC synthase) (enzyme)
chain: MNPSTTQARVVVDELIRGGVRDVVLCPGSRNAPLAFALQDADRSGRIRLHVRIDERTAGYLAIGLAIGAGAPVCVAMTSGTAVANLGPAVVEANYARVPLIVLSANRPYELLGTGANQTMEQLGYFGTQVRASISLGLAEDAPERTSALNATWRSATCRVLAAATGARTANAGPVHFDIPLREPLVPDPEPLGAVTPPGRPAGKPWTYTPPVTFDQPLDIDLSVDTVVISGHGAGVHPNLAALPTVAEPTAPRSGDNPLHPLALPLLRPQQVIMLGRPTLHRPVSVLLADAEVPVFALTTGPRWPDVSGNSQATGTRAVTTGAPRPAWLDRCAAMNRHAIAAVREQLAAHPLTTGLHVAAAVSHALRPGDQLVLGASNPVRDVALAGLDTRGIRVRSNRGVAGIDGTVSTAIGAALAYEGAHERTGSPDSPPRTIALIGDLTFVHDSSGLLIGPTEPIPRSLTIVVSNDNGGGIFELLEQGDPRFSDVSSRIFGTPHDVDVGALCRAYHVESRQIEVDELGPTLDQPGAGMRVLEVKADRSSLRQLHAAIKAAL
Regarding B1, the “stoichiometry N” value came to 4.
